Results as given in PMC7615141, “ADAMTS-7 modulates atherosclerotic plaque formation by degradation of TIMP-1” (Circulation research, 2023).

B1: ADAMTS-7-FLAG (enzyme, human, UniProt Q9UKP4 28-1686, looked up)
chain: APGPAPGRATEGRAALDIVHPVRVDAGGSFLSYELWPRALRKRDVSVRRDAPAFYELQYRGRELRFNLTANQHLLAPGFVSETRRRGGLGRAHIRAHTPACHLLGEVQDPELEGGLAAISACDGLKGVFQLSNEDYFIEPLDSAPARPGHAQPHVVYKRQAPERLAQRGDSSAPSTCGVQVYPELESRRERWEQRQQWRRPRLRRLHQRSVSKEKWVETLVVADAKMVEYHGQPQVESYVLTIMNMVAGLFHDPSIGNPIHITIVRLVLLEDEEEDLKITHHADNTLKSFCKWQKSINMKGDAHPLHHDTAILLTRKDLCAAMNRPCETLGLSHVAGMCQPHRSCSINEDTGLPLAFTVAHELGHSFGIQHDGSGNDCEPVGKRPFIMSPQLLYDAAPLTWSRCSRQYITRFLDRGWGLCLDDPPAKDIIDFPSVPPGVLYDVSHQCRLQYGAYSAFCEDMDNVCHTLWCSVGTTCHSKLDAAVDGTRCGENKWCLSGECVPVGFRPEAVDGGWSGWSAWSICSRSCGMGVQSAERQCTQPTPKYKGRYCVGERKRFRLCNLQACPAGRPSFRHVQCSHFDAMLYKGQLHTWVPVVNDVNPCELHCRPANEYFAEKLRDAVVDGTPCYQVRASRDLCINGICKNVGCDFEIDSGAMEDRCGVCHGNGSTCHTVSGTFEEAEGLGYVDVGLIPAGAREIRIQEVAEAANFLALRSEDPEKYFLNGGWTIQWNGDYQVAGTTFTYARRGNWENLTSPGPTKEPVWIQLLFQESNPGVHYEYTIHREAGGHDEVPPPVFSWHYGPWTKCTVTCGRGVQRQNVYCLERQAGPVDEEHCDPLGRPDDQQRKCSEQPCPARWWAGEWQLCSSSCGPGGLSRRAVLCIRSVGLDEQSALEPPACEHLPRPPTETPCNRHVPCPATWAVGNWSQCSVTCGEGTQRRNVLCTNDTGVPCDEAQQPASEVTCSLPLCRWPLGTLGPEGSGSGSSSHELFNEADFIPHHLAPRPSPASSPKPGTMGNAIEEEAPELDLPGPVFVDDFYYDYNFINFHEDLSYGPSEEPDLDLAGTGDRTPPPHSHPAAPSTGSPVPATEPPAAKEEGVLGPWSPSPWPSQAGRSPPPPSEQTPGNPLINFLPEEDTPIGAPDLGLPSLSWPRVSTDGLQTPATPESQNDFPVGKDSQSQLPPPWRDRTNEVFKDDEEPKGRGAPHLPPRPSSTLPPLSPVGSTHSSPSPDVAELWTGGTVAWEPALEGGLGPVDSELWPTVGVASLLPPPIAPLPEMKVRDSSLEPGTPSFPTPGPGSWDLQTVAVWGTFLPTTLTGLGHMPEPALNPGPKGQPESLSPEVPLSSRLLSTPAWDSPANSHRVPETQPLAPSLAEAGPPADPLVVRNAGWQAGNWSECSTTCGLGAVWRPVRCSSGRDEDCAPAGRPQPARRCHLRPCATWHSGNWSKCSRSCGGGSSVRDVQCVDTRDLRPLRPFHCQPGPAKPPAHRPCGAQPCLSWYTSSWRECSEACGGGEQQRLVTCPEPGLCEEALRPNTTRPCNTHPCTQWVVGPWGQCSGPCGGGVQRRLVKCVNTQTGLPEEDSDQCGHEAWPESSRPCGTEDCEPVEPPRCERDRLSFGFCETLRLLGRCQLPTIRTQCCRSCSPPSHGAPSRGHQRVARR
notes: ADAMTS-7, human; also called ADAMTS-7-FLAG-cryptate; TS7-FLAG-Crypt; source: HEK293, transfected, in lysate

Legend:
ADAMTS-7-FLAG = biological target: B1; test: AlphaScreen or HTRF; competition in the time-resolved FRET assay: untagged recombinant TIMP-1 (400 or 800 ng) added to ADAMTS-7-FLAG and TIMP-1-HA in lysates; 665/620 nm ratio; seven independent experiments; settings: one partner purified
[1] = biological target: T1, TIMP-1-HA (tissue inhibitor of metalloproteinases 1 with HA tag) (human, UniProt P01033 24-207); test: AlphaScreen or HTRF; time-resolved FRET; lysates of HEK293 cells overexpressing ADAMTS-7-FLAG and TIMP-1-HA incubated with anti-FLAG-cryptate and anti-HA-d2 antibodies; excitation 337 nm; 665/620 nm ratio as readout; settings: partners not purified
T1 construct: source: HEK293, transfected, in lysate; also in the supernatant

[2] = biological target: T1, TIMP-1-HA (tissue inhibitor of …); test: AlphaScreen or HTRF; the pair ADAMTS-7-FLAG and TIMP-1-HA in the competition experiment (lysates; 0 ng untagged TIMP-1 as reference); 665/620 nm ratio; seven independent experiments; settings: partners not purified

T1 sequence (P01033 24-207): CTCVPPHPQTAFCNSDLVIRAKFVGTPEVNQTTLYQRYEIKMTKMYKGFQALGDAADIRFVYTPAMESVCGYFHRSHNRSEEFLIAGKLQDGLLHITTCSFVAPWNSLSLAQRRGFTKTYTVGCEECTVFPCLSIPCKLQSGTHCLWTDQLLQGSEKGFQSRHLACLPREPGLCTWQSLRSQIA

Row | FRET ratio (665/620) of ADAMTS-7-FLAG with TIMP-1-HA in the presence of 400 ng untagged TIMP-1 (ADAMTS-7-FLAG) | FRET ratio (665/620) of ADAMTS-7-FLAG with TIMP-1-HA in the presence of 800 ng untagged TIMP-1 (ADAMTS-7-FLAG) | FRET ratio (665/620) [1] | FRET ratio (665/620) with 0 ng untagged TIMP-1 [2] | Binder
1 | 4420 665/620 ratio | 3570 665/620 ratio | – | – | untagged, recombinant TIMP-1 (natural protein, The supplier may be named in the Supplemental Material; also called untagged TIMP-1; source: recombinant, untagged) not shown
2 | – | – | 5480 665/620 ratio | 4950 665/620 ratio | B1
